{"source": "patent US20250355002A1", "target": "recombinant cryptic HDGFL2 with C-terminal glycine serine linker and 6-HisTag (human) (UniProt Q7Z4V5)", "sequence (Q7Z4V5 other isoform, or with tags, fused parts or gaps limits assumed)": "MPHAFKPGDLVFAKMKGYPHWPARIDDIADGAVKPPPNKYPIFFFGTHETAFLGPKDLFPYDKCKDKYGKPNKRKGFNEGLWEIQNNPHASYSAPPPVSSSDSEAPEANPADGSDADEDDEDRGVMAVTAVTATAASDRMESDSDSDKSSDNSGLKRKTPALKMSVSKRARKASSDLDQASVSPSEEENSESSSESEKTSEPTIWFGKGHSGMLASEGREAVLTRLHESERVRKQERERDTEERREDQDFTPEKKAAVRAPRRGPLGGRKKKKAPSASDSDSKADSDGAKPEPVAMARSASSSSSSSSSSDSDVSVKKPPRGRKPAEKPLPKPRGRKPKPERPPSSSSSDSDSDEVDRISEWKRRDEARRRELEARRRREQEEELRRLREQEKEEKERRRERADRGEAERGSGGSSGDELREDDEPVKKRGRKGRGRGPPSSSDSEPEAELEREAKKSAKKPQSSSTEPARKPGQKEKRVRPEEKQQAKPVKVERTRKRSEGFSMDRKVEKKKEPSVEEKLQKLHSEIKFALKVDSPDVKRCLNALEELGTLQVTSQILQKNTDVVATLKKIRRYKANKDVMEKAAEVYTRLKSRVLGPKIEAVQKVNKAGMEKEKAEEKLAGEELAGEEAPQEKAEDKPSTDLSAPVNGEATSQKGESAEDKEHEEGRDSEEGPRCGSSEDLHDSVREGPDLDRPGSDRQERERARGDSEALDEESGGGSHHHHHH", "experiment": "MSD sandwich ELISA on HeLa overexpression lysates; mouse IgG isotype control in place of the capture antibody"}
{"substance": "mouse IgG isotype control (for the capture antibody)", "values": [{"measurement": "ratio of cryptic/WT HDGFL2 lysate MSD signal", "result": 1}]}
